According to patent US20180127503A1 (EUREKA THERAPEUTICS, published 2018):
No end group written: not given here. *: point of attachment. Biotin = O=C1N[C@H]2[C@H](CS[C@H]2CCCCC(=O)*)N1

T1: biotin-SGSG-KTITATGVLFVRLGP ROR2 array peptide (human)
T1 construct: Peptide of the overlapping ROR2 peptide array, immobilised on streptavidin plates
T1 peptide: Biotin-SGSGKTITATGVLFVRLGP


Tests used:
[1] = biological target: T2, human ROR2 expressed on the cell surface (human, UniProt Q01974 34-943); test: flow cytometry, SKNJB cells (neuroblastoma); design: unit not given here
T2 construct: Endogenous ROR2 of human tumour cell lines; also called cell surface ROR2; ROR2 on tumour cell lines
Protocol: (§1) Human tumour cell lines were authenticated using short tandem repeat (STR) analysis. They were cultured in RPMI1640 (Cellgro) supplemented with 10% fetal bovine serum (FBS, Life Technologies) at 37° C. in a 5% CO₂ humidified incubator. They were harvested, washed in PBS and reacted with ROR2-IgG at 1 ug/10⁶ tumour cells on ice for an hour. #901-IgG was used as a negative control at the same dose. After washing, a secondary PE-conjugated goat anti-human IgG, Fcγ fragment specific (1:100, Jackson ImmunoResearch) was added for another 30 min incubation. Staining was analyzed on a FACSCalibur (BD Biosciences). ROR2 (full length) antibody binding towards multiple cancer cell lines were compared with Rituxan and Herceptin antibodies. The cancer cell lines were derived from breast cancer, colorectal cancer, mesothelioma, hepatocellular carcinoma, ovarian cancer, osteosarcoma, neuroblastoma, etc. ROR2 #90 antibody could recognize most of the tumour cells tested, and in some cases, the binding intensity was higher than Herceptin (see Tables 8 to 10).

[2] = biological target: T2, human ROR2 expressed on the cell surface; test: flow cytometry, OVCAR3 cells (ovarian CA); design: unit not given here
Protocol: as §1

[3] = biological target: T2, human ROR2 expressed on the cell surface; test: flow cytometry, HTB132 cells (breast CA); design: unit not given here
Protocol: as §1

[4] = biological target: T2, human ROR2 expressed on the cell surface; test: flow cytometry, IMR32 cells (neuroblastoma); design: unit not given here
Protocol: as §1

[5] = biological target: T2, human ROR2 expressed on the cell surface; test: flow cytometry, TC32 cells (EW/PNET); design: unit not given here
Protocol: as §1

[6] = biological target: T2, human ROR2 expressed on the cell surface; test: flow cytometry, H345 cells (SCLC); design: unit not given here
Protocol: as §1

[7] = biological target: T2, human ROR2 expressed on the cell surface; test: flow cytometry, H524 cells (SCLC); design: reference not given here
Protocol: as §1

[8] = biological target: T2, human ROR2 expressed on the cell surface; test: flow cytometry, MCF7-Luc cells (breast CA); design: unit not given here
Protocol: as §1

[9] = biological target: T2, human ROR2 expressed on the cell surface; test: flow cytometry, U251 LUC cells (glioma); design: unit not given here
Protocol: as §1

[10] = biological target: T2, human ROR2 expressed on the cell surface; test: flow cytometry, CRL1427 cells (osteosarcoma); design: unit not given here
Protocol: as §1

[11] = biological target: T2, human ROR2 expressed on the cell surface; test: flow cytometry, NMB7 cells (neuroblastoma); design: unit not given here
Protocol: as §1

[12] = biological target: T2, human ROR2 expressed on the cell surface; test: flow cytometry, MCF7 cells (breast CA); design: unit not given here
Protocol: as §1

[13] = biological target: T2, human ROR2 expressed on the cell surface; test: flow cytometry, U2OS cells (osteosarcoma); design: unit not given here
Protocol: as §1

[14] = biological target: T2, human ROR2 expressed on the cell surface; test: flow cytometry, SKES-1 cells (EW/PNET); design: unit not given here
Protocol: as §1

[15] = biological target: T2, human ROR2 expressed on the cell surface; test: flow cytometry, SKMEL-5 cells (melanoma); design: unit not given here
Protocol: as §1

[16] = biological target: T1, biotin-SGSG-KTITATGVLFVRLGP ROR2 array …; test: ELISA on biotinylated ROR2 peptide array
Protocol: To better understand the structural basis of the ROR2-specific antibody as a drug candidate, a standard epitope mapping was performed by ELISA against a ROR2 peptide array. The peptide array covers the whole length of the ROR2 protein through 96 overlapping peptides ([…] each with 4 amino acids worth of space between them). The peptides were biotinlyated at the N-terminal to immobilize them onto streptavidin ELISA plates. A spacer (SGSG) was used to provide flexibility. The space was inserted at the N-terminal biotin-SGSG-15 amino acids. ELISA assays were performed with the full length ROR2 antibodies as the primary antibody and an anti-human Fc AP-conjugated antibody was used for detection. […] FIG. 12 indicates the epitope position in ROR2 primary structure. This sequence is not shared by ROR1 and not found in human proteins by PBLAST.

T2 sequence (Q01974 34-943 limits assumed): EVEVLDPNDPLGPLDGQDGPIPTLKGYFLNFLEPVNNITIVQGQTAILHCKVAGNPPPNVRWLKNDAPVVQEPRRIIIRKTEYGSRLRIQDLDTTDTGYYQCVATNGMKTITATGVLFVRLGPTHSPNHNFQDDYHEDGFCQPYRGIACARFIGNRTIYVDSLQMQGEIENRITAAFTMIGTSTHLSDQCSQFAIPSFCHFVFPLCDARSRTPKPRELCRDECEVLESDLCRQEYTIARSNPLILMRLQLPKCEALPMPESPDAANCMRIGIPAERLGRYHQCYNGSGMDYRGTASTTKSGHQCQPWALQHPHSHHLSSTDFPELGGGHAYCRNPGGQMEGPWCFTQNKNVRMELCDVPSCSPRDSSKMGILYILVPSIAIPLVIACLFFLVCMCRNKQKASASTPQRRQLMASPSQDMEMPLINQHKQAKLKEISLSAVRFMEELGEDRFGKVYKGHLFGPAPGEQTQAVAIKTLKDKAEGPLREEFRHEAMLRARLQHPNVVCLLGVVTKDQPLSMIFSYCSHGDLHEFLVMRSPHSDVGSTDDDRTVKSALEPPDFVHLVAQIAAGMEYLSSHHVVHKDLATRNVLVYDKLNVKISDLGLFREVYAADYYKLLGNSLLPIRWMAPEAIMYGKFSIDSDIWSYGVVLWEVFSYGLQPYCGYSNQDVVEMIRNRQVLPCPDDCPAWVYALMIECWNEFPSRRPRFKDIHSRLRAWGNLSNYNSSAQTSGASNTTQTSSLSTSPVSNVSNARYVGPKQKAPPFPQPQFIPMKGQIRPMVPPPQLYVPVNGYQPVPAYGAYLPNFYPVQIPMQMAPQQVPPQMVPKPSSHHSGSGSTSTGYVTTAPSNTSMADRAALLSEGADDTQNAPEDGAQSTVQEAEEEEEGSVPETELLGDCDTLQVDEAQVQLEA

Binder	binding intensity [1]	binding intensity [2]	binding intensity [3]	binding intensity [4]	binding intensity [5]	binding intensity [6]	binding intensity [7]	binding intensity [8]	binding intensity [9]	binding intensity [10]	binding intensity [11]	binding intensity [12]	binding intensity [13]	binding intensity [14]	binding intensity [15]	binding result [16]
ROR2-27 full length human IgG1 antibody (antibody, V domains shown, also called clone #27; clone #027 IgG1) VH: QVQLVESGAEVKKPGESLKISCKASGYSFSNYWIGWVRQMPGKGLEWMGIIYPDDSDTRYSPSFQGQVTISADKSISTAYLQWYSLKVADTAKYYCVRPRGAFDIWGQGTTVTVSS VL: QSVLTQPPSVSGAPGQRVTISCTGSSSNIGAGHAVHWYQQLPGTAPKLLIYDNANRPSGVPDRFSGSQSGTSASLAITGLQTGDEADYYCGTWDDSPSAYVFGTGTKVTVLG	141	7	8	16	20	26	16	74	9	11	23	27	29	12	2	
ROR2-23 full length human IgG1 antibody (antibody, V domains shown, The light chain of clone 023 is labelled kappa; also called clone #23; clone #023 IgG1) VH: EVQLVQSGAEVKKPGESLKISCQGSGYRFSKYWIGWVRQMPGKGLEWMGIIYPGDSDTRYSPSFQGQVTISADKSISTAYLQWSSLKASDTAMYYCARSFSSFIYDYWGQGTLVTVSS VL: ETTLTQSPGTLSVSPGERATLSCRASQSVSSNLAWYQQKRGQAPRLLIYGASTRATGIPVRFSGSGSGTEFTLTISRLEPEDFAVYYCQQYGRSPLTFGGGTKVDIKR	182	35	5	24	37	34	28	111	14	30	35	52	52	22	7	
ROR2-90 full length human IgG1 antibody (antibody, V domains shown, also called clone #90; antibody #90) VH: EVQLVESGPGLVKPSQTLSLTCTVSGGSISSGGYYWSWIRQHPGKGLEWIGYIYYSGSTYYNPSLKSRVTISVDTSKNQFSLKLSSVTAADTAMYYCARGGLYWTYSQDVWGQGTLVTVSS VL: QPVLTQPPSASGTPGQRVTISCSGSSSNIGSDYVSWYQQLPGTAPKLLIYRNDQRPSGVPDRFSGSKSGTSASLAISGLRSEDEADYYCVAWDDSLSGYVFGSGTKVTVLG	254	48	5	51	70	48	20	190	27	45	47	115	94	28	8	binds

Continued, values first:

binding intensity [1]	binding intensity [2]	binding intensity [3]	binding intensity [4]	binding intensity [5]	binding intensity [6]	binding intensity [7]	binding intensity [8]	binding intensity [9]	binding intensity [10]	binding intensity [11]	binding intensity [12]	binding intensity [13]	binding intensity [14]	binding intensity [15]	binding result [16]	Binder
238	22	45	50	17	49	32	42	120	54	58	21	60	12	5		ROR2-241 full length human IgG1 antibody (antibody, V domains shown) VH: EVQLVQSGAEVKKPGASVKVSCKASGYTFTNYYIHWVRQAPGQGLEWMGIINPTSGRTRYAQRFQGRVTMTRDTSTNTVYMDLSSLRSEDTAMYYCARSGYYWGVNGDQWGQGTLVTVSS VL: SYELTQPLSVSVALGQTARITCGGNNIGSKNVHWYQQKPGQAPVLVIYRDSNRPSGIPERFSGSNSGNTATLTISRAQAGDEADYYCQVWDSSIVVFGGGTKLTVLG
199	4	4	29	4	36	7	39	5	4	33	3	39	5	1		ROR2-240 full length human IgG1 antibody (antibody, V domains shown, also called clone #240 IgG1) VH: QITLKESGPELVKPTQTLTLTCTFSGFSLSTSGMSVSWIRQPPGKALEWLARIDWDDDKYYSTSLKTRLTISKDTSKNQVVLTMTNTDPVDTATYYCARGFYLAYGSYDSWGQGTLVTVSS VL: QSALTQPASVSGSPGQSITISCTGTSGDVGGYNYVSWYQHHPGKAPKLIIYDVNKRPSGFSDRFSGSKSGNTASLTISGLQAEDEADYYCSSYTSTSTVFGGGTKLTVLG
